Data as given in the RNAGym collection of RNA variant scans (doi:10.7554/elife.90254).

B1: LINE1-full (parent)
chain: UACGUAGGUGGUUUUCCCCUGAUAGUGCUAAGGGGGCCUGGAAGUUUGGACUGGGCAGAGCUCAACACAGCGUGGCAAAGUGGCUGUGGCUAGACUGCCUCUCUGGAUUCCUCGUCACUCAGCAGGGCAUCUCUGAGAGAAAUGCC

Variants of: B1
Assay: self-cleavage, relative activity (ratio to wild type); higher = more cleavage; in vitro, sequencing; the parent is a self-cleaving ribozyme

First: UACGUAGGUGGUUUUCCCCUGAUAGUGCCAAGGGGGCCUGGAAGUUUGGACUGGGCAGAGCUCAACACAGCGUGGCAAAGUGGCUGUGGCUAGACUGCCUCUCUGGAUUCCUCGUCACCCAGCAGGGCAUCUCUGAGAGAAAUGCC
Second: UACGUAGGUGGUUUUCCCCUGAUAGUGCCAAGGGGGCCUGGAAGUUUGGACUGGGCAGAGCUCAACACAGCGUGGCAAAGUGGCUGUGGCUAGACUGCCUCUCUGGAUUCCUCGUCACACAGCAGGGCAUCUCUGAGAGAAAUGCC
The self-cleavage of the first is higher: 1.45 for the first, 1.21 for the second.

Going from UACGUAGGUGGUUUUCCCCUGAUAGUGCCAAGGGGGCCUGGAAGUUUGGACUGGGCAGAGCUCAACACAGCGUGGCAAAGUGGCUGUGGCUAGACUGCCUCUCUGGAUUCCUCGUCACUCAGCAGGGCAGCUCUGAGAGAAAUGCC to UACGUAGGUGGUUUUCCCCUGAUAGUGCCAAGGGGGCCUGGAAGCUUGGACUGGGCAGAGCUCAACACAGCGUGGCAAAGUGGCUGUGGCUAGACUGCCUCUCUGGAUUCCUCGUCACUCAGCAGGGCAUCUCUGAGAGAAAUGCC, the self-cleavage falls from 1.84 to 1.08.

Compared with UACGUAGGUGGUUUUCCCCUGAUAGUGCCAAGGGGGCCUGGAAGGUUGGACUGGGCAGAGCUCAACACAGCGUGGCAAAGUGGCUGUGGCUAGACUGCCUCUCUGGAUUCCUCGUCACUCAGCAGGGCAUCUCUGAGAGAAAUGCC, UACGUAGGUGGUUUUCCCCUGAUAGUGCCAAGGGGGCCUGGAAGUUUGGACUAGGCAGAGCUCAACACAGCGUGGCAAAGUGGCUGUGGCUAGACUGCCUCUCUGGAUUCCUCGUCACUCAGCAGGGCAUCUCUGAGAGAAAUGCC is higher in self-cleavage: 0.79 for the first, 0.94 for the second.

Going from UACGUAGGUGGUUUUCCCCUGAUAGUGCCAAGGGGGCCUGGAAGUUUGGACUGGGCAGAGCCCAACACAGCGUGGCAAAGUGGCUGUGGCUAGACUGCCUCUCUGGAUUCCUCGUCACUCAGCAGGGCAUCUCUGAGAGAAAUGCC to UACGUAGGUGGUUUUCCCCUGAUAGUGCCAAGGGGGCCUGGAAGUUUGGACUGGGCAGAGCUCAACACAGCGUGGCAAAGUGACUGUGGCUAGACUGCCUCUCUGGAUUCCUCGUCACUCAGCAGGGCAUCUCUGAGAGAAAUGCC, the self-cleavage rises from 0.15 to 0.43.

Going from UACGUAGGUGGUUUUCCCCUGAUAGUGCCAAGGGGACCUGGAAGUUUGGACUGGGCAGAGCUCAACACAGCGUGGCAAAGUGGCUGUGGCUAGACUGCCUCUCUGGAUUCCUCGUCACUCAGCAGGGCAUCUCUGAGAGAAAUGCC to UACGUAGGUGGUUUUCCCCUGAUAGUGCCAAGGGGGCCUGGAAGUUUGGACUGGGCAGAGCUCAACACAGCGUGGCAAAGUGGCUGUGGCUAGACUGCCUCUCUGGAUUCCCCGUCACUCAGCAGGGCAUCUCUGAGAGAAAUGCC, the self-cleavage falls from 1.63 to 1.07.

Compared with UACGUAGGUGGUUUUCCCCUGAUAGUGCCAAGGGGGCCUGGAAGUUUGGACUGGGCAGAGCUCAACACAGCGUGGCAAAGAGGCUGUGGCUAGACUGCCUCUCUGGAUUCCUCGUCACUCAGCAGGGCAUCUCUGAGAGAAAUGCC, UACGUAGGUGGUUUUCCCCUGAUAGUGCCAAGGGGGCCUGGAAGUUUGGACUGGGCAGAGCUCAACACAGCGUGGCAAAGCGGCUGUGGCUAGACUGCCUCUCUGGAUUCCUCGUCACUCAGCAGGGCAUCUCUGAGAGAAAUGCC is lower in self-cleavage: 1.3 for the first, 1.27 for the second.

Compared with UACGUAGGUGGUUUUCCCCUGAUAGUGCCAAGGGGGCCUGGAAGUUUGGACUGGGCAGAGCUCAACACAGCGUGGCAAAGUGGCUGUGGCUAGACUGCCCCUCUGGAUUCCUCGUCACUCAGCAGGGCAUCUCUGAGAGAAAUGCC, UACGUAGGUGGUUUUCCCCUGAUAGUGCCAAGGGGGCCUGGAAGUUUGGACUGGGCAGAGCUCAACACAGCGUGGCAAAGUGGCUGUGGCUAGACUGCCUCUCUGGAUCCCUCGUCACUCAGCAGGGCAUCUCUGAGAGAAAUGCC is lower in self-cleavage: 1.49 for the first, 0.91 for the second.

Compared with UACGUAGGUGGUUUUCCCCUGAUAGUGCCAAGGGGGCCUGGAAGUUUGGACUGGGCAGAACUCAACACAGCGUGGCAAAGUGGCUGUGGCUAGACUGCCUCUCUGGAUUCCUCGUCACUCAGCAGGGCAUCUCUGAGAGAAAUGCC, UACGUAGGUGGUUUUCCCCUGAUAGUGCCAAGGGGGCCUGGAAGUUUGGACUGGGCAGAGCUCAACACAGCGUGGCAAAGUGGCUGUGGCUAGACUGCCUCUCUGGAUUCCUCGUCACUCAGCAGGGCAUCUCUGAGAGAAAUGUC is higher in self-cleavage: 0.02 for the first, 1.28 for the second.

First: UACGUAGGUGGUUUUCCCCUGAUAGUGCCAAGGGGGCCUGGAAGUUUGGACUGGGCAGAGCUCAACACAGCGUGGCAAAGUGGCUGUGGCUAGACUGCCUCUCUGGAUUCCUCGUCACUCAGCAGGGCAUCACUGAGAGAAAUGCC
Second: UACGUAGGUGGUUUUCCCCUGAUAGUGCCAAGGGGGCCUGGAAGUUUGGACUGGGCAGAGCUCAACACAUCGUGGCAAAGUGGCUGUGGCUAGACUGCCUCUCUGGAUUCCUCGUCACUCAGCAGGGCAUCUCUGAGAGAAAUGCC
The self-cleavage of the first is higher: 1.47 for the first, 0.01 for the second.

Going from UACGUAGGUGGUUUUCCCCUGAUAGUGCCAAGGGGGCCUGGAAGUUUGGACUGGGCAGAGCUCAACACAGCGUGGCAAAGUGGCUGUGGCUAGACUGCCUCACUGGAUUCCUCGUCACUCAGCAGGGCAUCUCUGAGAGAAAUGCC to UACGUAGGUGGUUUUCCCCUGAUAGUGCCAAGGGGGCCUGGAAGUUUGGACUGGGCAGAGCUCAACACAGCGUGGCAAAGUGGCUGUGGCUAGACUGCCUCCCUGGAUUCCUCGUCACUCAGCAGGGCAUCUCUGAGAGAAAUGCC, the self-cleavage falls from 1.84 to 1.1.

Going from UACGUAGGUGGUUUUCCCCUGAUAGUGCCAAGGGGGCCUGGAAGUUUGGACUGGGCAGAGCUCAACACAGCGUGGCAAAGUGGCUGUGGCUAGACUGCCUCUCUGGACUCCUCGUCACUCAGCAGGGCAUCUCUGAGAGAAAUGCC to UACGUAGGUGGUUUUCCCCUGAUAGUGCCAAGGGGGCCUGGAAGUUCGGACUGGGCAGAGCUCAACACAGCGUGGCAAAGUGGCUGUGGCUAGACUGCCUCUCUGGAUUCCUCGUCACUCAGCAGGGCAUCUCUGAGAGAAAUGCC, the self-cleavage rises from 1.27 to 1.85.

Compared with UACGUAGGUGGUUUUCCCCUGAUAGUGCCAAGGGGGCCUGGAAGUUAGGACUGGGCAGAGCUCAACACAGCGUGGCAAAGUGGCUGUGGCUAGACUGCCUCUCUGGAUUCCUCGUCACUCAGCAGGGCAUCUCUGAGAGAAAUGCC, UACGUAGGUGGUUUUCCCCUGAUAGUGCCAAGGGGGCCUGGAAGUUUGGACUGGGCAGAGCUCAACACAGCGUGGCAAAGUGGCUGUGGCUAGACUGCCUCUCUGGAUUCCUCAUCACUCAGCAGGGCAUCUCUGAGAGAAAUGCC is higher in self-cleavage: 1.11 for the first, 1.38 for the second.

Compared with UACGUAGGUGGUUUUCCCCUGAUAGUGCCAAGGGGGCCUGGAAGUUUGGACUGGGCAGAGCUCAACACAGCGUGGCAAAGUGGCUGUGGCUAGACUGCCUCUCUGGAUUCCUCCUCACUCAGCAGGGCAUCUCUGAGAGAAAUGCC, UACGUAGGUGGUUUUCCCCUGAUAGUGCCAAGGGGGCCUGGAAGUUUGGACUGGCCAGAGCUCAACACAGCGUGGCAAAGUGGCUGUGGCUAGACUGCCUCUCUGGAUUCCUCGUCACUCAGCAGGGCAUCUCUGAGAGAAAUGCC is lower in self-cleavage: 1.49 for the first, 0 for the second.

Compared with UACGUAGGUGGUUUUCCCCUGAUAGUGCCAAGGGGGCCUGGAAGUUUGGACUGGGCAGAGCUCAACACAGCGUGGCAAAGUGGCUGUGGCUAGACUGCCUCUCAGGAUUCCUCGUCACUCAGCAGGGCAUCUCUGAGAGAAAUGCC, UACGUAGGUGGUUUUCCCCUGAUAGUGCCAAGGGGGCCUGGAAGUUUGGACUGGGCAGAGCUCAACACAGCGUGGCAAAGUGGCUGUGGCUAGACUGCCUCUCCGGAUUCCUCGUCACUCAGCAGGGCAUCUCUGAGAGAAAUGCC is lower in self-cleavage: 1.12 for the first, 1 for the second.

Compared with UACGUAGGUGGUUUUCCCCUGAUAGUGCCAAGGGGGCCUGGAAGUUUGGACAGGGCAGAGCUCAACACAGCGUGGCAAAGUGGCUGUGGCUAGACUGCCUCUCUGGAUUCCUCGUCACUCAGCAGGGCAUCUCUGAGAGAAAUGCC, UACGUAGGUGGUUUUCCCCUGAUAGUGCCAAGGGGGCCUGGAAGUUUGGACCGGGCAGAGCUCAACACAGCGUGGCAAAGUGGCUGUGGCUAGACUGCCUCUCUGGAUUCCUCGUCACUCAGCAGGGCAUCUCUGAGAGAAAUGCC is higher in self-cleavage: 1.16 for the first, 1.84 for the second.

Going from UACGUAGGUGGUUUUCCCCUGAUAGUGCCAAGGGGGCCUGGAACUUUGGACUGGGCAGAGCUCAACACAGCGUGGCAAAGUGGCUGUGGCUAGACUGCCUCUCUGGAUUCCUCGUCACUCAGCAGGGCAUCUCUGAGAGAAAUGCC to UACGUAGGUGGUUUUCCCCUGAUAGUGCCAAGGGGGCCUGGAAGUUUAGACUGGGCAGAGCUCAACACAGCGUGGCAAAGUGGCUGUGGCUAGACUGCCUCUCUGGAUUCCUCGUCACUCAGCAGGGCAUCUCUGAGAGAAAUGCC, the self-cleavage falls from 1.82 to 0.88.

Going from UACGUAGGUGGUUUUCCCCUGAUAGUGCCAAGGGGGCCUGGAAGUUUGGACUGGGCAGAGCUCAACACAGCGUGGCAAAGUGGCUGUGGCUAGACUGCCUCUCUGGAUUCCUCGCCACUCAGCAGGGCAUCUCUGAGAGAAAUGCC to UACGUAGGUGGUUUUCCCCUGAUAGUGCCAAGGGGGCCUGGAAGUUUGGACUGGGCAGAGCUCAACACAGCGUGGCAAAGUGGCUGUGGCUAGACUGCCUCUCUGGAUUCCUCGUCACUCAGCAGGACAUCUCUGAGAGAAAUGCC, the self-cleavage falls from 1.75 to 0.64.

First: UACGUAGGUGGUUUUCCCCUGAUAGUGCCAAGGGGGCCUGGAAGUUUGGACUGGGCAGAGCUCAACACAGCGUGGCAAAGUGGCUGUGGCUAGACUGCCUCUCUGGAUUCCUCGUCACUCAGCAGGCCAUCUCUGAGAGAAAUGCC
Second: UACGUAGGUGGUUUUCCCCUGAUAGUGCCAAGGGGGCCUGGAAGUUUGGACUGGGCAGAGCUCAACACAGCGCGGCAAAGUGGCUGUGGCUAGACUGCCUCUCUGGAUUCCUCGUCACUCAGCAGGGCAUCUCUGAGAGAAAUGCC
The self-cleavage of the first is higher: 1.58 for the first, 1.3 for the second.

First: UACGUAGGUGGUUUUCCCCUGAUAGUGCCAAGGGGGCCUGGAAGUUUGGACUGGGCAGAGCUCAACACAGCGUGGCAAAGUGGCAGUGGCUAGACUGCCUCUCUGGAUUCCUCGUCACUCAGCAGGGCAUCUCUGAGAGAAAUGCC
Second: UACGUAGGUGGUUUUCCCCUGAUAGUGCCAAGGGGGCCUGGAAGUUUGGACUGGGCAGAGCUCAACACAGCGUGGCAAAGUGGCCGUGGCUAGACUGCCUCUCUGGAUUCCUCGUCACUCAGCAGGGCAUCUCUGAGAGAAAUGCC
The self-cleavage of the first is lower: 0.12 for the first, 0.28 for the second.

With UACGUAGGUGGUUUUCCCCUGAUAGUGCCAAGGGGGCCUGGAAGUUUGGACUGGGCAGAGCUCAACACAGCGUGGCAAAGUGGCUGUGACUAGACUGCCUCUCUGGAUUCCUCGUCACUCAGCAGGGCAUCUCUGAGAGAAAUGCC the self-cleavage was 0.06.
